Each block holds one substance with its values, some of them ahead of it.
Target: target ligand expressed on MutuDC1940 cells
Assay: cell-based or functional assay

- relative expression level of the Firefly luciferase gene against general lipid nanoparticles, MutuDC1940 cells, 10% FBS, LP ratio 1,000:1 to 100,000:1: 5 to 20 times
- relative expression level of the Firefly luciferase gene against general lipid nanoparticles, MutuDC1940 cells, no serum, LP ratio 500:1 to 10,000:1: 5 to 20 times
Substance: antibody-bound lipid nanoparticle carrying a fragment of the NLDC145 antibody conjugated with the membrane scaffold protein ApoA1 (scFv)

- relative expression level of the Firefly luciferase gene against general lipid nanoparticles, MutuDC1940 cells, 10% FBS, LP ratio 500:1 to 100,000:1: 5 to 20 times
- relative expression level of the Firefly luciferase gene against general lipid nanoparticles, MutuDC1940 cells, no serum, LP ratio 500:1 to 1,000:1: 5 to 20 times
Substance: antibody-bound lipid nanoparticle carrying a fragment of the NLDC145 antibody conjugated with the membrane scaffold protein ApoE3 (scFv)

- relative expression level of the Firefly luciferase gene against general lipid nanoparticles, MutuDC1940 cells, 10% FBS, LP ratio 5,000:1 to 100,000:1: 5 to 20 times
- relative expression level of the Firefly luciferase gene against general lipid nanoparticles, MutuDC1940 cells, no serum, LP ratio 5,000:1 to 10,000:1: 5 to 20 times
Substance: antibody-bound lipid nanoparticle carrying a fragment of the NLDC145 antibody conjugated with the membrane scaffold protein MSP1E3D1 (scFv)
